Data as given in paper PMC5737660.
Like-named read-outs stand apart in the source and are kept apart here.

What was measured:
[1] = target: CdiI^NC101-His6 immunity protein, crystallography construct (E. coli NC101); experiment: crystal structure
[2] = target: CdiI^NC101-His6 immunity protein, crystallography construct (E. coli NC101); experiment: crystal structure; remark: listed apart in the source

## CdiI^NC101-His6 immunity protein, crystallography construct (natural protein)
[1]
  stoichiometry N: 2
[2]
  stoichiometry N: 2
